The target in the assay is recombinant human TfR1 (human) (UniProt P02786). The assay is described as follows: SPR array (Carterra LSA), IgG captured, TfR as analyte, 25 C.

The results in this text go back to patent US20240408227A1.

Broadly, the Kd is the equilibrium constant for the complex coming apart. Broadly, the kon is the rate constant with which the complex forms.

Chain of recombinant human TfR1 (human) (P02786 89-760 limits assumed): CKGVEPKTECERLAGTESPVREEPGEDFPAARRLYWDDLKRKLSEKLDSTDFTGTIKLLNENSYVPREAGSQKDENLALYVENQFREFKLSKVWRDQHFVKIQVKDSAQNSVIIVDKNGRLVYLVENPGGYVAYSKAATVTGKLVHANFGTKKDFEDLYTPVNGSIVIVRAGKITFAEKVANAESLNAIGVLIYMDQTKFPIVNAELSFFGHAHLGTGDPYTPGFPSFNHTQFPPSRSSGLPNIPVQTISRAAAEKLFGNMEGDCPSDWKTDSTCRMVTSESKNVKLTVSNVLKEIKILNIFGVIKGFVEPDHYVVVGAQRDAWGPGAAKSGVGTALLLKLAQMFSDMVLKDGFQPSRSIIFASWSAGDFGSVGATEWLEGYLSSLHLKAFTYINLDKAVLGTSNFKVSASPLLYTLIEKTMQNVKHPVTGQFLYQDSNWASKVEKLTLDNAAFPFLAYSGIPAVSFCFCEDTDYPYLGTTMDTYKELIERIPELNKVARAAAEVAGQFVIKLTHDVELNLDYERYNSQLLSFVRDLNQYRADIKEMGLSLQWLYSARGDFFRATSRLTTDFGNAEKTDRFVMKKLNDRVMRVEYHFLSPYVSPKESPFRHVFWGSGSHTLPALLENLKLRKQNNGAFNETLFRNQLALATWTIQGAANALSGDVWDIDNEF

Consider “OKT9 control anti-TfR1 antibody (mouse IgG)”, for which the Kd amounted to 536 pM and the kon stood at 774000 M⁻¹ s⁻¹.
